Experimental findings from doi:10.1101/212704 (bioRxiv, 2017) are described below.

First the molecules themselves.
B1: GST-MAD1-NTD (domain or fragment, human, UniProt Q9Y6D9 1-485, looked up)
chain: MEDLGENTMVLSTLRSLNNFISQRVEGGSGLDISTSAPGSLQMQYQQSMQLEERAEQIRSKSHLIQVEREKMQMELSHKRARVELERAASTSARNYEREVDRNQELLTRIRQLQEREAGAEEKMQEQLERNRQCQQNLDAASKRLREKEDSLAQAGETINALKGRISELQWSVMDQEMRVKRLESEKQELQEQLDLQHKKCQEANQKIQELQASQEARADHEQQIKDLEQKLSLQEQDAAIVKNMKSELVRLPRLERELKQLREESAHLREMRETNGLLQEELEGLQRKLGRQEKMQETLVGLELENERLLAKLQSWERLDQTMGLSIRTPEDLSRFVVELQQRELALKDKNSAVTSSARGLEKARQQLQEELRQVSGQLLEERKKRETHEALARRLQKRVLLLTKERDGMRAILGSYDSELTPAEYSPQLTRRMREAEDMVQKVHSHSAEMEAQLSQALEELGGQKQRADMLEMELKMLKSQSS

Assay in all cases: pull-down
Assay [1] deals with T1, His-tagged MPS1 (UniProt P33981 1-857).
T1 sequence (looked up): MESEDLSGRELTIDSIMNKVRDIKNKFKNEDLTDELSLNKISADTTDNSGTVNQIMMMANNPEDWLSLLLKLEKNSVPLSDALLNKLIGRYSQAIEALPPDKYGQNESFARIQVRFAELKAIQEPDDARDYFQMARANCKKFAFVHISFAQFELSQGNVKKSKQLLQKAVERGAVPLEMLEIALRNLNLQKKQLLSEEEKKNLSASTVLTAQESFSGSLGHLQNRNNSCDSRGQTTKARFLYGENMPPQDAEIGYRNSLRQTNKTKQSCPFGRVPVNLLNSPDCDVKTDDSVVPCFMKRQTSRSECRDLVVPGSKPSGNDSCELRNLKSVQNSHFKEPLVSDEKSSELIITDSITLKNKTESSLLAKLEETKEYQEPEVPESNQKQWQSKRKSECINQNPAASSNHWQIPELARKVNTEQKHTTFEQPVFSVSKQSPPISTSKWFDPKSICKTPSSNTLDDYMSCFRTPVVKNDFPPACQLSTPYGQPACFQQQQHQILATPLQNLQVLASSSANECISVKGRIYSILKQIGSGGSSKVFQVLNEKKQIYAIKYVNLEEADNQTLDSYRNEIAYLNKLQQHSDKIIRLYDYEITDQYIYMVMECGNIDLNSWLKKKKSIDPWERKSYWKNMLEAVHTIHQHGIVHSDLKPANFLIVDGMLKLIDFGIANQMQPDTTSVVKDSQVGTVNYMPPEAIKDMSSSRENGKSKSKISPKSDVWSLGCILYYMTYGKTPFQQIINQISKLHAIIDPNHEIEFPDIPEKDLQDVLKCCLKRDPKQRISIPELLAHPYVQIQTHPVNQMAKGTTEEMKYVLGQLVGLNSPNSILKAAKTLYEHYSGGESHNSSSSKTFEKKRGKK

The target of assay [2] is 6×His-tagged wild type MAD2 (UniProt Q13257 2-205).
Assay [3] concerns the target untagged MAD2^L13A (UniProt Q13257 2-205, L13A).
For assay [4], the target named is B1.

Regarding B1, the binding result in assay [1] is recorded as “binds”.

B2: GST-MAD1-MIM (domain or fragment, human, UniProt Q9Y6D9 485-584, looked up)
chain: SSAEQSFLFSREEADTLRLKVEELEGERSRLEEEKRMLEAQLERRALQGDYDQSRTKVLHMSLNPTSVARQRLREDHSQLQAECERLRGLLRAMERGGTV
For the molecule B2, the binding result in assay [2] and in assay [3] was “binds” in each case.

B3: MAD2^LARQ (L13A/R133E/Q134A) (natural protein, UniProt Q13257 2-205, looked up)
chain: ALQLSREQGITARGSAEIVAEFFSFGINSILYQRGIYPSETFTRVQKYGLTLLVTTDLELIKYLNNVVEQLKDWLYKCSVQKLVVVISNIESGEVLERWQFDIECDKTAKDDSAPREKSQKAIQDEIRSVIEAITATVTFLPLLEVSCSFDLLIYTDKDLVVPEKWEESGPQFITNSEEVRLRSFTTTIHKVNSMVAYKIPVND
For B3, the binding result in assay [4] is given as “binds”.

B4: GST-tagged MAD1-CTD globular subdomain (638-718 residues) (domain or fragment, human, UniProt Q9Y6D9 638-718, looked up)
chain: GYQIDITTENQYRLTSLYAEHPGDCLIFKATSPSGSKMQLLETEFSHTVGELIEVHLRRQDSIPAFLSSLTLELFSRQTVA
For B4, the binding result in assay [3] is recorded as “binds”.
